The values below come from patent publication US20250320281A1 (published 2025).

What all share (assay): cell-based or functional assay
The target of assay [1] is HIV-1 92RW020 Env (pseudovirus) (HIV-1 isolate 92RW020).
The target in assay [2] is HIV-1 IAVI-C18 Env (pseudovirus) (HIV-1 isolate IAVI-C18).
The target of assay [3] is HIV-1 IAVI-C3 Env (pseudovirus) (HIV-1 isolate IAVI-C3).
The target in assay [4] is HIV-1 94UG103 Env (pseudovirus) (HIV-1 isolate 94UG103).
Assay [5] deals with HIV-1 APV-13 Env (pseudovirus) (HIV-1 isolate APV-13).
The target in assay [6] is HIV-1 92UG005 Env (pseudovirus) (HIV-1 isolate 92UG005).
Assay [7] has as its target HIV-1 93UG077 Env (pseudovirus) (HIV-1 isolate 93UG077).
Assay [8] deals with HIV-1 APV-6 Env (pseudovirus) (HIV-1 isolate APV-6).
For assay [9], the target named is HIV-1 APV-17 Env (pseudovirus) (HIV-1 isolate APV-17).
Assay [10] deals with HIV-1 92BR020 Env (pseudovirus) (HIV-1 isolate 92BR020).
Assay [11] deals with HIV-1 CMU02 Env (pseudovirus) (HIV-1 isolate CMU02).
The target in assay [12] is HIV-1 IAVI-C22 Env (pseudovirus) (HIV-1 isolate IAVI-C22).
Assay [13] addresses HIV-1 92UG024 Env (pseudovirus) (HIV-1 isolate 92UG024).
In assay [14] the target is HIV-1 92TH021 Env (pseudovirus) (HIV-1 isolate 92TH021).
Assay [15] addresses HIV-1 93IN905 Env (pseudovirus) (HIV-1 isolate 93IN905).
Assay [16] concerns the target HIV-1 NL43 Env on pseudotyped virus (HIV-1 NL43).
Assay [17] has as its target HIV-1 92TH021 Env on pseudotyped virus (HIV-1 isolate 92TH021).
Assay [18] has as its target HIV-1 SF162 Env on pseudotyped virus (HIV-1 isolate SF162).
In assay [19] the target is HIV-1 IAVI_C22 Env on pseudotyped virus (HIV-1 isolate IAVI_C22).
Assay [20] addresses HIV-1 93IN905 Env on pseudotyped virus (HIV-1 isolate 93IN905).
Assay [21] has as its target HIV-1 92BR020 Env on pseudotyped virus (HIV-1 isolate 92BR020).
Assay [22] has as its target HIV-1 94UG103 Env on pseudotyped virus (HIV-1 isolate 94UG103).

Where only a bound is given, the exact number is not on record here.

B1: 1496_C09 (PG9) (TCN-109) (antibody, V domains shown)
VH: QRLVESGGGVVQPGSSLRLSCAASGFDFSRQGMHWVRQAPGQGLEWVAFIKYDGSEKYHADSVWGRLSISRDNSKDTLYLQMNSLRVEDTATYFCVREAGGPDYRNGYNYYDFYDGYYNYHYMDVWGKGTTVTVSS
VL: QSALTQPASVSGSPGQSITISCNGTSNDVGGYESVSWYQQHPGKAPKVVIYDVSKRPSGVSNRFSGSKSGNTASLTISGLQAEDEGDYYCKSLTSTRRRVFGTGTKLTVLG
On to B1, for which the “IC50 (µg/mL), pseudovirus neutralization” value in assay [1] is 0.06 µg/mL; in assay [2] it was 0.05 µg/mL; in assay [3] it was 12.9 µg/mL; in assay [4], 0.17 µg/mL; in assay [5] it was greater than 50 µg/mL; in [6] it was greater than 50 µg/mL. The “IC50 (µg/mL), pseudovirus neutralization” value was greater than 50 µg/mL in [7]; 0.09 µg/mL in assay [8]; 26.4 µg/mL in assay [9]; greater than 50 µg/mL in assay [10]; greater than 50 µg/mL in assay [11].

B2: 1443_C16 (PG16) (TCN-116) (antibody, V domains shown)
VH: QEQLVESGGGVVQPGGSLRLSCLASGFTFHKYGMHWVRQAPGKGLEWVALISDDGMRKYHSDSMWGRVTISRDNSKNTLYLQFSSLKVEDTAMFFCAREAGGPIWHDDVKYYDFNDGYYNYHYMDVWGKGTTVTVSS
VL: QSALTQPASVSGSPGQTITISCNGTSSDVGGFDSVSWYQQSPGKAPKVMVFDVSHRPSGISNRFSGSKSGNTASLTISGLHIEDEGDYFCSSLTDRSHRIFGGGTKVTVLG
As for B2, the “IC50 (µg/mL), pseudovirus neutralization” value is 0.004 µg/mL in assay [1]; 0.007 µg/mL in [2]; 14.8 µg/mL in [3]; 0.008 µg/mL in assay [4]; greater than 50 µg/mL in [5]; greater than 50 µg/mL in assay [6]. For the same molecule, the “IC50 (µg/mL), pseudovirus neutralization” value in [12] was 0.069 µg/mL; in assay [13] it was greater than 50 µg/mL; in assay [7], greater than 50 µg/mL; in assay [8], 0.08 µg/mL; in assay [14] it was 0.13 µg/mL; in assay [15], 0.1 µg/mL. The “IC50 (µg/mL), pseudovirus neutralization” value in assay [9], in assay [10] and in assay [11] was greater than 50 µg/mL each time.

B3: 1460_G14 (PGG14) (antibody, human IgG1, kappa, V domains shown)
VH: QVLLVQSGTEVKKPGSSVKVSCQASGGAFSSYAFSWVRQAPGQGLEWMGMITPVFGETKYAPRFQGRLTLTAEESLSTTYMELRSLTSDDTAFYYCTRDRRVVPMATDNWLDPWGQGTLVTVSS
VL: DIQLTQSPSSLSASVGDRVTVTCRASQTIHTYLNWYQQIPGKAPKLLIYGASTLQSGVPSRFSGSGSGTDFTLTINSLQPEDFATYYCQQSYSTPRTFGQGTRLDIKR
Regarding B3, the “IC50 (µg/mL), pseudovirus neutralization” value in assay [1], in assay [2], in assay [3], in assay [4], in assay [5] and in assay [6] was greater than 50 µg/mL each time. Moreover, the “IC50 (µg/mL), pseudovirus neutralization” value in assay [12], in assay [13], in assay [7], in assay [8], in [14] and in assay [15] was greater than 50 µg/mL in each case. In addition, the “IC50 (µg/mL), pseudovirus neutralization” value in assay [9], in [10] and in assay [11] was greater than 50 µg/mL each time.

B4: 1460_G14 (PGG14) (antibody, human IgG1, kappa, V domains shown)
VH: QVLLVQSGTEVKKPGSSVKVSCQASGGAFSSYAFSWVRQAPGQGLEWMGMITPVFGETKYAPRFQGRLTLTAEESLSTTYMELRSLTSDDTAFYYCTRDRRVVPMATDNWLDPWGQGTLVTVSS
VL: DIQLTQSPSSLSASVGDRVTVTCRASQTIHTYLNWYQQIPGKAPKLLIYGASTLQSGVPSRFSGSGSGTDFTLTINSLQPEDFATYYCQQSYSTPRTFGQGTRLDIKR
Consider B4, for which the “Neutralizing Antibody Assay: IC50; Virus/Ab Incubation 1 hour” value was 0.17 µg/mL in assay [16]; greater than 50 µg/mL in [17]; 0.179 µg/mL in [18]; greater than 50 µg/mL in assay [19]; greater than 50 µg/mL in assay [20]; greater than 50 µg/mL in assay [21]. Moreover, the “Neutralizing Antibody Assay: IC50; Virus/Ab Incubation 1 hour” value in [22] is greater than 50 µg/mL. The “Neutralizing Antibody Assay: IC50; Virus/Ab Incubation 18 hour” value in assay [16] is 0.05 µg/mL; in assay [17] it was greater than 50 µg/mL; in assay [18], 0.0573 µg/mL; in [19] it was greater than 50 µg/mL; in assay [20], 3.17 µg/mL; in assay [21] it was greater than 50 µg/mL. The “Neutralizing Antibody Assay: IC50; Virus/Ab Incubation 18 hour” value in assay [22] is greater than 50 µg/mL.

B5: 1456_P20 (PG20) (antibody, human IgG1, kappa, V domains shown)
VH: QVRLVQSGPEVKKPGSSVTVSCQASGGTFSSYAFTWVRQAPGQGLEWLGMVTPIFGEAKYSQRFEGRVTITADESTSTTSIELRGLTSEDTAIYYCARDRRAVPIATDNWLDPWGQGTLVTVSS
VL: DIQLTQSPSSLSASVGDRVSITCRASQTINNYLNWYQQTPGKAPKLLIYGASNLQNGVPSRFSGSGSGTDFTLTISSLQPEDFATYYCQQSFSTPRTFGQGTRLDIKR
B5: the “IC50 (µg/mL), pseudovirus neutralization” value in assay [1] was 50 µg/mL; in [2], greater than 50 µg/mL; in [3] it was greater than 50 µg/mL; in assay [4], greater than 50 µg/mL; in assay [5], greater than 50 µg/mL; in assay [6], greater than 50 µg/mL. Also, the “IC50 (µg/mL), pseudovirus neutralization” value in assay [12] was greater than 50 µg/mL; in [13], greater than 50 µg/mL; in [7], greater than 50 µg/mL; in assay [8], 25.8 µg/mL; in [14] it was greater than 50 µg/mL; in assay [15] it was greater than 50 µg/mL. Moreover, the “IC50 (µg/mL), pseudovirus neutralization” value in assay [9], in assay [10] and in assay [11] was greater than 50 µg/mL throughout.

B6: 1495_C14 (PGC14) (antibody, human IgG1, lambda, V domains shown)
VH: DGHLVQSGVEVKKTGATVKISCKVSGYSFIDYYLHWVQRAPGKGLEWVGLIDPENGEARYAEKFQGRVTIIADTSIDTGYMEMRSLKSEDTAVYFCAAGAVGADSGSWFDPWGQGTLVTVSS
VL: SYELTQPPSVSVSPGQTASITCSGSKLGDKYVSWYQLRPGQSPILVMYENDRRPSGIPERFSGSNSGDTATLTISGTQALDEADFYCQAWETTTTTFVFFGGGTQLTVLG
Take B6: the “IC50 (µg/mL), pseudovirus neutralization” value in [1] was 28.6 µg/mL; in assay [2] it was greater than 50 µg/mL; in assay [3], 9.5 µg/mL; in assay [4] it was greater than 50 µg/mL; in assay [5], greater than 50 µg/mL; in assay [6], greater than 50 µg/mL. Further, the “IC50 (µg/mL), pseudovirus neutralization” value is greater than 50 µg/mL in [12]; greater than 50 µg/mL in assay [13]; greater than 50 µg/mL in assay [7]; 7.41 µg/mL in assay [8]; greater than 50 µg/mL in assay [14]; greater than 50 µg/mL in [15]. The “IC50 (µg/mL), pseudovirus neutralization” value was greater than 50 µg/mL in [9], 0.64 µg/mL in [10] and greater than 50 µg/mL in assay [11].
